The supplement of paper PMC10266784

B1: library; numbered along this chain (parent)
chain: MAAAAAAAAEQQSSNGPVKKSMREKAVERRSVNKEHNSNFKAGYIPIDEDRLHKTGLRGRKGNLAICVIILLFILAVINLIITLVIWAVIRIGPNGCDSMEFHESGLLRFKQVSDMGVIHPLYKSTVGGRRNENLVITGNNQPIVFQQGTTKLSVENNKTSITSDIGMQFFDPRTQNILFSTDYETHEFHLPSGVKSLNVQKASTERITSNATSDLNIKVDGRAIVRGNEGVFIMGKTIEFHMGGNMELKAENSIILNGSVMVSTTRLPSSSSGDQLGSGDWVRYKLCMCADGTLFKVQVTSQNMGCQISDNPCGNTH

Variants of: B1
Experiment: SGCB cell-surface expression functional score (HA stain, bin4 vs bin1, normalised to synonymous) (log10 ratio); higher = more cell-surface SGCB (functional)
Summary of the method: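 Codon-saturation libraries of HA-tagged, YFP-fused human beta-sarcoglycan were lentivirally transduced at MOI <0.1 into HEK293 cells stably expressing alpha-, gamma- and delta-sarcoglycan. YFP-positive cells were sorted after 72 hours, grown 5–7 days, stained on ice with Alexa Fluor 647 anti-HA, fixed, sorted into four 5% intensity bins and amplicon-sequenced. The functional score is the log ratio of highest-bin to lowest-bin variant frequency, taken as the median over codons and duplicate transductions. Synonymous variants were scaled per section to mean 0, SD 0.5.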
With MAAAAAAAAEQQSSNGPVKKSMREKAVERRSVNKEHNSNFKAGYIPIDEDRLHKTGLRGRKGNLAICVIILLFILAVINLIITLVIWAVIRIGPNGCDSMEFHESGLLRFKQVSDMGVIHPLYKSTVGGRRNENLVITGNNQPIVFQQGTTKLSVENNKTSITSDIGMQFFDPRTQNILFSTDYETHEFHLPSGVKSLNVQKASTERITSNATSDLNIKVDGRAIVRGNEGVFIMGKTIEFHMGGNMELKAENSIILNGSVMVATTRLPSSSSGDQLGSGDWVRYKLCMCADGTLFKVQVTSQNMGCQISDNPCGNTH [S264A] the “SGCB cell-surface expression functional score (log10)” value was 0.51.
With MAAAAAAAAEQQSSNGPVKKSMREKAVERRSVNKEHNSNFKAGYIPIDEDRLHKTGLRGRKGNLAICVIILLFILAVINLIITLVIWAVIRIGPNGCDSMEFHESGLLRFKQVSDMGVIHPLYKSTVGGRRNENLVITGNNQPIVFQQGTTKLSVENNKTSITSDIGMQFFDPRTQNILFSTDYETHEFHLPSGVKSLNVQKASTERITSNATSDLNIKVDGRAIVRGNEGVFIMGKTIEFHMGGNMELKAENSIILNGSVMQSTTRLPSSSSGDQLGSGDWVRYKLCMCADGTLFKVQVTSQNMGCQISDNPCGNTH [V263Q] the “SGCB cell-surface expression functional score (log10)” value was -1.36.
For MAAAAAAAAEQQSSNGPVKKSMREKAVERRSVNKEHNSNFKAGYIPIDEDRLHKTGLRGRKGNLAICVIILLFILAVINLIITLVIWAVIRIGPNGCDSMEFHESGLLRFKQVSDMGVIHPLYKSTVGGRRNENLVITGNNQPIVFQQGTTKLSVENNKTSITSDIGMQFFDPRTQNILFSTDYETHEFHLPSGVKSLNVQKASTERITSNATSDLNIKVDGRAIVRGNEGVFIMGKTIEFHMGGNMELKAENSIILNGSVMTSTTRLPSSSSGDQLGSGDWVRYKLCMCADGTLFKVQVTSQNMGCQISDNPCGNTH [V263T], the “SGCB cell-surface expression functional score (log10)” value was 0.4.
In the case of MAAAAAAAAEQQSSNGPVKKSMREKAVERRSVNKEHNSNFKAGYIPIDEDRLHKTGLRGRKGNLAICVIILLFILAVINLIITLVIWAVIRIGPNGCDSMEFHESGLLRFKQVSDMGVIHPLYKSTVGGRRNENLVITGNNQPIVFQQGTTKLSVENNKTSITSDIGMQFFDPRTQNILFSTDYETHEFHLPSGVKSLNVQKASTERITSNATSDLNIKVDGRAIVRGNEGVFIMGKTIEFHMGGNMELKAENSIILNGSVMMSTTRLPSSSSGDQLGSGDWVRYKLCMCADGTLFKVQVTSQNMGCQISDNPCGNTH [V263M], the “SGCB cell-surface expression functional score (log10)” value is reported as -1.03.
With MAAAAAAAAEQQSSNGPVKKSMREKAVERRSVNKEHNSNFKAGYIPIDEDRLHKTGLRGRKGNLAICVIILLFILAVINLIITLVIWAVIRIGPNGCDSMEFHESGLLRFKQVSDMGVIHPLYKSTVGGRRNENLVITGNNQPIVFQQGTTKLSVENNKTSITSDIGMQFFDPRTQNILFSTDYETHEFHLPSGVKSLNVQKASTERITSNATSDLNIKVDGRAIVRGNEGVFIMGKTIEFHMGGNMELKAENSIILNGSVMRSTTRLPSSSSGDQLGSGDWVRYKLCMCADGTLFKVQVTSQNMGCQISDNPCGNTH [V263R] the “SGCB cell-surface expression functional score (log10)” value was -0.48.
For MAAAAAAAAEQQSSNGPVKKSMREKAVERRSVNKEHNSNFKAGYIPIDEDRLHKTGLRGRKGNLAICVIILLFILAVINLIITLVIWAVIRIGPNGCDSMEFHESGLLRFKQVSDMGVIHPLYKSTVGGRRNENLVITGNNQPIVFQQGTTKLSVENNKTSITSDIGMQFFDPRTQNILFSTDYETHEFHLPSGVKSLNVQKASTERITSNATSDLNIKVDGRAIVRGNEGVFIMGKTIEFHMGGNMELKAENSIILNGSVMPSTTRLPSSSSGDQLGSGDWVRYKLCMCADGTLFKVQVTSQNMGCQISDNPCGNTH [V263P], the “SGCB cell-surface expression functional score (log10)” value was -1.18.
In the case of MAAAAAAAAEQQSSNGPVKKSMREKAVERRSVNKEHNSNFKAGYIPIDEDRLHKTGLRGRKGNLAICVIILLFILAVINLIITLVIWAVIRIGPNGCDSMEFHESGLLRFKQVSDMGVIHPLYKSTVGGRRNENLVITGNNQPIVFQQGTTKLSVENNKTSITSDIGMQFFDPRTQNILFSTDYETHEFHLPSGVKSLNVQKASTERITSNATSDLNIKVDGRAIVRGNEGVFIMGKTIEFHMGGNMELKAENSIILNGSVMYSTTRLPSSSSGDQLGSGDWVRYKLCMCADGTLFKVQVTSQNMGCQISDNPCGNTH [V263Y], the “SGCB cell-surface expression functional score (log10)” value is reported as 0.3.
In the case of MAAAAAAAAEQQSSNGPVKKSMREKAVERRSVNKEHNSNFKAGYIPIDEDRLHKTGLRGRKGNLAICVIILLFILAVINLIITLVIWAVIRIGPNGCDSMEFHESGLLRFKQVSDMGVIHPLYKSTVGGRRNENLVITGNNQPIVFQQGTTKLSVENNKTSITSDIGMQFFDPRTQNILFSTDYETHEFHLPSGVKSLNVQKASTERITSNATSDLNIKVDGRAIVRGNEGVFIMGKTIEFHMGGNMELKAENSIILNGSVMWSTTRLPSSSSGDQLGSGDWVRYKLCMCADGTLFKVQVTSQNMGCQISDNPCGNTH [V263W], the “SGCB cell-surface expression functional score (log10)” value is reported as 0.52.
In the case of MAAAAAAAAEQQSSNGPVKKSMREKAVERRSVNKEHNSNFKAGYIPIDEDRLHKTGLRGRKGNLAICVIILLFILAVINLIITLVIWAVIRIGPNGCDSMEFHESGLLRFKQVSDMGVIHPLYKSTVGGRRNENLVITGNNQPIVFQQGTTKLSVENNKTSITSDIGMQFFDPRTQNILFSTDYETHEFHLPSGVKSLNVQKASTERITSNATSDLNIKVDGRAIVRGNEGVFIMGKTIEFHMGGNMELKAENSIILNGSVMSSTTRLPSSSSGDQLGSGDWVRYKLCMCADGTLFKVQVTSQNMGCQISDNPCGNTH [V263S], the “SGCB cell-surface expression functional score (log10)” value is reported as -0.39.
For MAAAAAAAAEQQSSNGPVKKSMREKAVERRSVNKEHNSNFKAGYIPIDEDRLHKTGLRGRKGNLAICVIILLFILAVINLIITLVIWAVIRIGPNGCDSMEFHESGLLRFKQVSDMGVIHPLYKSTVGGRRNENLVITGNNQPIVFQQGTTKLSVENNKTSITSDIGMQFFDPRTQNILFSTDYETHEFHLPSGVKSLNVQKASTERITSNATSDLNIKVDGRAIVRGNEGVFIMGKTIEFHMGGNMELKAENSIILNGSVMNSTTRLPSSSSGDQLGSGDWVRYKLCMCADGTLFKVQVTSQNMGCQISDNPCGNTH [V263N], the “SGCB cell-surface expression functional score (log10)” value was 0.66.
